Substitutions are numbered along the chain they refer to.
T1: HLA DP molecule DPB1*0201 (human)
T1 chain 1: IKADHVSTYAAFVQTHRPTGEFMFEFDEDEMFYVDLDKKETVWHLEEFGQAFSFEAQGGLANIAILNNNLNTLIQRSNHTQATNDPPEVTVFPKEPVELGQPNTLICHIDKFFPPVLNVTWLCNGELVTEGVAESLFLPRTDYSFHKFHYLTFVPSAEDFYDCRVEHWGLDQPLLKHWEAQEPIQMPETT
T1 chain 2: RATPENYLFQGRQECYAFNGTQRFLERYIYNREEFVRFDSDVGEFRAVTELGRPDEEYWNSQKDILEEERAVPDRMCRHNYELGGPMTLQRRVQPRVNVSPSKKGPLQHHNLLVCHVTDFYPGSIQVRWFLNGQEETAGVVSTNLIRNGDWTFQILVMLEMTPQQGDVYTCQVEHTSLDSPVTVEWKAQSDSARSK

T2: HLA DP molecule DPB1*0401 (human)
T2 chain 1: T1 chain 1
T2 chain 2: T1 chain 2 with V36A, D55A, E56A, E69K

T3: HLA-DP molecule DPB1*0401 (human)
T3 chain 1: T1 chain 1
T3 chain 2: T1 chain 2 with V36A, D55A, E56A, E69K

T4: HLA-DP DPB1*0401 (human)
T4 chain 1: T1 chain 1
T4 chain 2: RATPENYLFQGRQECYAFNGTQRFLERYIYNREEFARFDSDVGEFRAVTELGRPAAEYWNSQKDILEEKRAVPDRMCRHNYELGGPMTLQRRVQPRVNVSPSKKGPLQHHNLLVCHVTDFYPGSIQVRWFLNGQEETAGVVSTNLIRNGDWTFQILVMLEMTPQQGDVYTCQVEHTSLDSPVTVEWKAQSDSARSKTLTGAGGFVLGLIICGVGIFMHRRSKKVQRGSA

B1: Fel d 1 1 (41-55) peptide DEYVEQVAQYKALPV, Peptide ID 3324.1049 (peptide)
peptide: DEYVEQVAQYKALPV
B2: Fel d 1 1 peptide, position 41, DEYVEQVAQYKALPV (Peptide ID 3324.1049) (peptide)
peptide: DEYVEQVAQYKALPV
B3: Fel d 1 2 peptide, position 21, AETCPIFYDVFFAVA (Peptide ID 3324.1056) (peptide)
peptide: AETCPIFYDVFFAVA
B4: Fel d 1 2 peptide, position 26, IFYDVFFAVANGNEL (Peptide ID 3324.1052) (peptide)
peptide: IFYDVFFAVANGNEL
B5: Fel d 1 1 peptide, position 78, NALSVLDKIYTSPLC (Peptide ID 3324.1050) (peptide)
peptide: NALSVLDKIYTSPLC
B6: Der f 1 peptide, position 131, GSCWAFSGVAATESA (Peptide ID 3324.0670) (peptide)
peptide: GSCWAFSGVAATESA
B7: Fel d 1 2 peptide, position 36, NGNELLLDLSLTKVN (Peptide ID 3324.1055) (peptide)
peptide: NGNELLLDLSLTKVN
B8: Poa p 5 peptide, position 61, FKAAVAAAAGAPPAD (Peptide ID 3324.1575) (peptide)
peptide: FKAAVAAAAGAPPAD
B9: Poa p 5 peptide, position 121, ATPEAKFD5FVAAFT as printed in Table 8 (Peptide ID 3324.1570) (peptide)
peptide: ATPEAKFDSFVAAFT
B10: Poa p 5 peptide, position 56, DINVGFKAAVAAAAG (Peptide ID 3324.1571) (peptide)
peptide: DINVGFKAAVAAAAG
B11: Lol p 5 1 peptide, position 151, DAYVATLTEALRVIA (Peptide ID 3324.1167) (peptide)
peptide: DAYVATLTEALRVIA
B12: Pha a 5 peptide, position 121, DAFIAALTEALRVIA (Peptide ID 3324.1432) (peptide)
peptide: DAFIAALTEALRVIA
B13: Lol p 3 peptide, position 51, LWEVKSAKPLTGPMN (Peptide ID 3337.0031) (peptide)
peptide: LWEVKSAKPLTGPMN
B14: Lol p 5 1 peptide, position 71, LIEKINAGFKAAVAA (Peptide ID 3324.1175) (peptide)
peptide: LIEKINAGFKAAVAA
B15: Lol p 2 peptide, position 76, MRNVFDDVVPADFKV (Peptide ID 3337.0030) (peptide)
peptide: MRNVFDDVVPADFKV
B16: Lol p 2 peptide 51-65 DGVWEIKSDKPLKGP (Peptide ID 3324.1139) (peptide)
peptide: DGVWEIKSDKPLKGP
B17: Cup s 1 peptide 86-100 EKALWIIFSQNMNIK (Peptide ID 3324.0615) (peptide)
peptide: EKALWIIFSQNMNIK
B18: Lol p 11 peptide 111-125 RYANPIAFFRKEPLK (Peptide ID 3324.1138) (peptide)
peptide: RYANPIAFFRKEPLK
B19: Dac g 4 peptide 1-15 DIYNYMEPYVSKVDP (Peptide ID 3324.0663) (peptide)
peptide: DIYNYMEPYVSKVDP
B20: Cup a 1 peptide 66-80 KALWIIFSQNMNIKL (Peptide ID 3324.0604) (peptide)
peptide: KALWIIFSQNMNIKL
B21: Lol p 2 peptide 56-70 IKSDKPLKGPFNFRF (Peptide ID 3324.1140) (peptide)
peptide: IKSDKPLKGPFNFRF
B22: Que a 1 peptide 11-25 ASVIPPARLFKAFVL (Peptide ID 3324.1587) (peptide)
peptide: ASVIPPARLFKAFVL
B23: Que a 1 peptide 16-30 PARLFKAFVLDSDNL (Peptide ID 3324.1585) (peptide)
peptide: PARLFKAFVLDSDNL

target: HLA DQ molecule DQB1*0602 (human); experiment: inhibition of radiolabeled peptide binding to purified HLA class II

B1 was tested, and the IC50 was 140 nM.

target: HLA DQ molecule DQB1*0502 (human); experiment: as above

B1 was tested, and the IC50 was 337 nM.

Target: T1, HLA DP molecule DPB1*0201
Experiment: competition vs radiolabeled peptide, purified HLA-DP

In order of falling IC50:
1. B6  9310 nM
2. B2  1120 nM
3. B5  575 nM
4. B4  89 nM
5. B3  8.1 nM

Target: T2, HLA DP molecule DPB1*0401
Experiment: as above

In order of rising IC50:
1. B3  5.6 nM
2. B4  242 nM
3. B5  349 nM
4. B2  533 nM
5. B7  590 nM
6. B6  14400 nM

Target: T3, HLA-DP molecule DPB1*0401
Experiment: inhibition of radiolabeled peptide binding to purified HLA-DP

In order of rising IC50:
1. B11  0.515 µM
2. B9  4.85 µM
3. B10  20.7 µM
4. B8  28.9 µM

target: HLA-DP molecule DPB1*1401 (human); experiment: as above

In order of rising IC50:
1. B14  2.42 µM
2. B9  2.77 µM
3. B11  4.4 µM
4. B13  18.6 µM
5. B15  24.2 µM
6. B12  29.7 µM

target: HLA-DP molecule DPB1*2001 (human); experiment: as above

In order of falling IC50:
1. B9  3240 nM
2. B8  2940 nM
3. B13  671 nM
4. B11  597 nM
5. B10  295 nM
6. B15  82 nM
7. B12  31 nM

Target: T4, HLA-DP DPB1*0401
Experiment: as above

In order of rising IC50:
1. B23  52 nM
2. B22  917 nM
3. B17  1540 nM
4. B20  1730 nM
5. B18  2060 nM
6. B16  5210 nM
7. B21  12300 nM
8. B19  23400 nM

— patent US20150004189A1 (published 2015)
